Assay [1] concerns the target Human CD16B (NA2) on NK92mi/CD16B (NA2) cells (human) (UniProt O75015). Nature of the assay: flow cytometry on NK92mi/CD16B(NA2) cells, anti-human IgG Fc detection.
The target of assay [2] is Human CD16A (V158) on NK92mi/CD16A V158 cells (human) (UniProt P08637). Nature of the assay: flow cytometry on NK92mi/CD16A V158 cells, anti-human IgG Fc detection. (In general: In flow cytometry, cells or beads pass a laser one at a time.)
Assay [3] has as its target Human CD16B (NA1) on NK92mi/CD16B (NA1) cells (human) (UniProt O75015). The experiment in a line: flow cytometry on NK92mi/CD16B(NA1) cells, anti-human IgG Fc detection.
The next assay addresses T1, human CD16B-His6 (SH) (human, UniProt O75015 17-200).
T1 construct: Bought ECD fragment (Sino Biologics); also called CD16B SH allotype; human CD16B (SH); not shown: six-histidine tag
Nature of the assay: antigen ELISA, coated human CD16B-His6 (SH), HRP anti-human IgG. (ELISA stands for enzyme-linked immunosorbent assay.)

Sequence of Human CD16B (NA2) on NK92mi/CD16B (NA2) cells (human) (O75015 17-200 N65S limits assumed): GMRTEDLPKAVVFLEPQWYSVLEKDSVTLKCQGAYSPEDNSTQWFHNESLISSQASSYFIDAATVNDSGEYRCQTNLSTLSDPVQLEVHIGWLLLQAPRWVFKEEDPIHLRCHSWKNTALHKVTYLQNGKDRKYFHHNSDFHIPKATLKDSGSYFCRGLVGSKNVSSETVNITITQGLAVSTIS
Sequence of Human CD16A (V158) on NK92mi/CD16A V158 cells (human) (P08637 17-254 F176V limits assumed): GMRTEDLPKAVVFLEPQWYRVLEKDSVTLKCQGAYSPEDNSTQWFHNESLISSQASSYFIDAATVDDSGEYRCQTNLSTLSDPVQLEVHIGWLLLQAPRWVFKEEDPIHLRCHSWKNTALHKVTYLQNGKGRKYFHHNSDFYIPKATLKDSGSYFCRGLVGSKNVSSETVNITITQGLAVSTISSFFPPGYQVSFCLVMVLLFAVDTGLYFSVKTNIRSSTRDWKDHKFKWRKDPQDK
Sequence of Human CD16B (NA1) on NK92mi/CD16B (NA1) cells (human) (O75015 other isoform, or with tags, fused parts or gaps limits assumed): as the sequence (O75015 17-200 N65S limits assumed) above, with S20R, S49N, N66D, I90V counted along it
T1 sequence (O75015 17-200): as the sequence (O75015 17-200 N65S limits assumed) above, with S49N counted along it
Description for human CD16B-His6 (SH): For antigen ELISA, a Maxisorp immunoplate was coated with antigens (human CD16A (V158), human CD16A (F158), human CD16B (NA1), human CD16B (NA2), human CD16B (SH), or cyno CD16) and blocked with 3% BSA (w/v) in PBS buffer (blocking buffer). Monoclonal VHH-Fc antibodies were blocked with blocking buffer for 30 min and added to wells of the ELISA plate for 1 h.

Human IgG (antibody): the results for the EC50 in assay [1], in assay [2] and in assay [3] were 0.314 µg/mL, 0.0112 µg/mL and 10.3 µg/mL, respectively. The EMAX is 7.66 in assay [1], 7.55 in assay [2] and 7.46 in assay [3].

B1: LS21 (scFv)
scFv: EVQLVQSGAEVKKPGESLKVSCKASGYTFTSYYMHWVRQAPGQGLEWMGIINPSGGSTSYAQKFQGRVTMTRDTSTSTVYMELSSLRSEDTAVYYCARGSAYYYDFADYWGQGTLVTVSSGGGGSGGGGSGGGGSQPVLTQPSSVSVAPGQTATISCGGHNIGSKNVHWYQQRPGQSPVLVIYQDNKRPSGIPERFSGSNSGNTATLTISGTQAMDEADYYCQVWDNYSVLFGGGTKLTVL
notes: also called positive control
With B1, the binding result in the assay with human CD16B-His6 (SH) is “no binding (tested: 1 ug/ml)”.

The values above are taken from patent US20260008853A1 (BEONE MEDICINES I, published 2026).
